The target in one experiment is HLA-B*15:03. The experiment in a line: IEDB peptide-MHC binding, purified MHC/competitive/radioactivity; filed as Kd, often an IC50 or EC50 that approximates it; ≥ and ≤ were set here for values at or beyond the usual limits of such assays.
The next experiment deals with HLA-A*30:01. The experiment is described as above.
The target of the next experiment is HLA-A*32:01. Described as above.
Another experiment addresses HLA-B*08:01. Described as above.
Experiment [1] has as its target HLA-B*15:01. The description is as above.
Experiment [2] concerns the target HLA-A*03:01. The experiment is described as follows: IEDB peptide-MHC binding, purified MHC/competitive/fluorescence; filed as Kd, often an IC50 or EC50 that approximates it; ≥ and ≤ were set here for values at or beyond the usual limits of such assays.
The next experiment has as its target HLA-A*31:01. The description is as above.
The target in another experiment is HLA-A*26:01. The experiment is described as above.
Another experiment concerns the target HLA-B*27:03. The description is as above.
The target in the next experiment is HLA-B*46:01. Described as above.
For another experiment, the target named is HLA-B*39:01. The experiment is described as above.
The target of the next experiment is HLA-B*57:01. The description is as above.
The target of another experiment is HLA-A*69:01. The description is as above.
The target in the next experiment is HLA-B*51:01. The experiment is described as above.
A further experiment concerns the target HLA-A*02:01. The experiment is described as above.
The next experiment deals with HLA-B*18:01. Described as above.
The target in the next experiment is HLA-A*02:03. The experiment is described as follows: IEDB peptide-MHC binding, purified MHC/direct/fluorescence; filed as Kd, often an IC50 or EC50 that approximates it; ≥ and ≤ were set here for values at or beyond the usual limits of such assays.
In the next experiment the target is HLA-A*11:01. The experiment is described as above.
Experiment [3] concerns the target HLA-A*03:01. The experiment is described as above.
The target of the next experiment is HLA-A*23:01. The description is as above.
For the next experiment, the target named is HLA-A*29:02. Described as above.
In a further experiment the target is HLA-A*02:11. Described as above.
Another experiment addresses HLA-A*02:12. The experiment is described as above.
The target in the next experiment is HLA-A*02:19. The description is as above.
A further experiment has as its target HLA-A*02:16. Described as above.
Another experiment has as its target HLA-A*24:03. The description is as above.
Experiment [4] deals with HLA-B*15:01. The experiment in a line: IEDB peptide-MHC binding, purified MHC/competitive/fluorescence; filed as Kd, often an IC50 or EC50 that approximates it; ≥ and ≤ were set here for values at or beyond the usual limits of such assays. To be noted: source organism: Zaire ebolavirus.
In a further experiment the target is HLA-A*01:01. The experiment in a line: IEDB peptide-MHC binding, purified MHC/direct/fluorescence; filed as Kd, often an IC50 or EC50 that approximates it; ≥ and ≤ were set here for values at or beyond the usual limits of such assays. Particulars: source organism: Reston ebolavirus.
Another experiment addresses HLA-A*68:02. Described as above.
For another experiment, the target named is HLA-B*15:17. The experiment in a line: IEDB peptide-MHC binding, purified MHC/competitive/fluorescence; filed as Kd, often an IC50 or EC50 that approximates it; ≥ and ≤ were set here for values at or beyond the usual limits of such assays. To be noted: source organism: Toxoplasma gondii.
The mark [5] stands for this setting: source organism: Vaccinia virus WR.
The mark [6] stands for this setting: source organism: Escherichia coli 536.
The mark [7] stands for this setting: source organism: Encephalitozoon cuniculi GB-M1.
Where [8] appears, read: source organism: Vaccinia virus Copenhagen.
Where [9] appears, read: source organism: Listeria welshimeri serovar 6b str. SLCC5334.
Where [10] appears, read: source organism: Zaire ebolavirus.
Where [11] appears, read: source organism: Entamoeba histolytica HM-1:IMSS.
Where [12] appears, read: source organism: dengue virus type 1.
Where [13] appears, read: source organism: Burkholderia mallei.
The mark [14] stands for this setting: source organism: Vibrio vulnificus YJ016.
[15] abbreviates: source organism: Toxoplasma gondii.

A value given as a limit tells only on which side of the number the result lay.

As for AILSLNLRI, the Kd – broadly, a measure of binding affinity in units of concentration – in the experiment with HLA-B*15:03 (setting [5]) was 237 nM; in the experiment with HLA-A*30:01 (setting [5]), 0.155 µM; with HLA-A*32:01 (setting [5]), 0.151 µM; with HLA-B*08:01 (setting [5]) it was 1.28 µM; with HLA-B*15:01 [1] (setting [5]) it was 0.142 µM.

For the sequence AVIVWLLLR, the results for the Kd with HLA-A*03:01 [2] (setting [6]) and with HLA-A*31:01 (setting [6]) were at least 20 µM and 0.743 µM, respectively.

As for EAYCALLCK, the dissociation constant (Kd) in the experiment with HLA-A*26:01 (setting [7]), with HLA-B*27:03 (setting [7]), with HLA-B*46:01 (setting [7]), with HLA-B*39:01 (setting [7]), in the experiment with HLA-B*57:01 (setting [7]) and in the experiment with HLA-A*69:01 (setting [7]) was at least 20 µM throughout. Also, the Kd with HLA-B*51:01 (setting [7]), with HLA-A*02:01 (setting [7]), with HLA-B*18:01 (setting [7]), with HLA-A*02:03 (setting [7]), with HLA-A*11:01 (setting [7]) and with HLA-A*03:01 [3] (setting [7]) was at least 20 µM in each case. Further, the Kd with HLA-A*23:01 (setting [7]), with HLA-A*29:02 (setting [7]), in the experiment with HLA-A*02:11 (setting [7]), in the experiment with HLA-A*02:12 (setting [7]), in the experiment with HLA-A*02:19 (setting [7]) and in the experiment with HLA-A*02:16 (setting [7]) was at least 20 µM each time. For the same sequence, in the experiment with HLA-A*24:03 (setting [7]), the Kd was at least 20 µM.

Take GVALRSTYR: the Kd with HLA-A*31:01 (source organism: Mycobacterium tuberculosis H37Ra) is 0.0093 µM; in the experiment with HLA-A*03:01 [3] (source organism: Mycobacterium tuberculosis), 1.81 µM.

On to ISVLTGSSI, for which the Kd in the experiment with HLA-B*15:03 (setting [8]) is 24.9 nM; in the experiment with HLA-A*30:01 (setting [8]), 3.22 µM; with HLA-A*32:01 (setting [8]), 3.91 µM; in the experiment with HLA-B*08:01 (setting [8]), at least 20.6 µM; with HLA-B*15:01 [1] (setting [8]), 0.0343 µM.

For KKYNNDKSF, the Kd is 0.0778 nM in the experiment with HLA-B*15:03 (setting [5]); at least 20.3 µM in the experiment with HLA-A*30:01 (setting [5]); 11.4 µM in the experiment with HLA-A*32:01 (setting [5]); 3.82 µM with HLA-B*08:01 (setting [5]); 6.62 µM in the experiment with HLA-B*15:01 [1] (setting [5]).

In the case of KVGHVGLYR, the Kd with HLA-A*03:01 [2] (setting [9]) was found to be 0.046 µM; with HLA-A*31:01 (setting [9]) it was 0.0196 µM.

Regarding KVKDLFNTK, the Kd was at least 22100 nM with HLA-B*15:03 (setting [5]); 0.0377 µM in the experiment with HLA-A*30:01 (setting [5]); 2.48 µM with HLA-A*32:01 (setting [5]); at least 42 µM in the experiment with HLA-B*08:01 (setting [5]); 4.46 µM with HLA-B*15:01 [1] (setting [5]).

On to LSDAARLFL, for which the Kd with HLA-A*26:01 (setting [10]), in the experiment with HLA-B*27:03 (setting [10]), with HLA-B*46:01 (setting [10]), in the experiment with HLA-B*39:01 (setting [10]), with HLA-B*57:01 (setting [10]) and with HLA-B*15:01 [4] was at least 20 µM throughout. Further, the Kd with HLA-A*69:01 (setting [10]), with HLA-B*51:01 (setting [10]), with HLA-A*02:01 (setting [10]), with HLA-B*18:01 (setting [10]), with HLA-A*02:03 (setting [10]) and in the experiment with HLA-A*03:01 [3] (setting [10]) was at least 20 µM each time. The Kd was at least 20 µM with HLA-A*23:01 (setting [10]); at least 20 µM with HLA-A*29:02 (setting [10]); at least 20 µM with HLA-A*02:11 (setting [10]); at least 20 µM with HLA-A*02:12 (setting [10]); 0.303 µM with HLA-A*01:01; at least 20 µM with HLA-A*02:19 (setting [10]). The Kd with HLA-A*02:16 (setting [10]), with HLA-A*68:02 (setting [10]) and with HLA-A*24:03 (setting [10]) was at least 20 µM each time.

Consider QYQNEINYL, for which the Kd with HLA-A*23:01 (setting [11]) was 0.002 µM; with HLA-A*24:03 (setting [11]), 0.003 µM.

SIRSMSRSI: the Kd in the experiment with HLA-B*15:03 (setting [8]) turned out to be 10300 nM; with HLA-A*30:01 (setting [8]), 0.132 µM; in the experiment with HLA-A*32:01 (setting [8]), 1.36 µM; with HLA-B*08:01 (setting [8]) it was 0.0772 µM; with HLA-B*15:01 [1] (setting [8]), 0.362 µM.

With SSADLSLEK, the Kd in the experiment with HLA-A*31:01 (setting [12]) is at least 20 µM; in the experiment with HLA-A*11:01 (setting [12]), 0.0027 µM.

On to TGHPWITFK, for which the Kd is 0.0482 µM with HLA-A*31:01 (source organism: Cupriavidus metallidurans CH34), 0.116 µM in the experiment with HLA-A*11:01 (setting [13]) and 0.945 µM in the experiment with HLA-A*03:01 [3] (setting [13]).

With TSCAPMMQK, the Kd with HLA-A*26:01 (setting [14]), with HLA-B*27:03 (setting [14]), with HLA-B*46:01 (setting [14]), in the experiment with HLA-B*39:01 (setting [14]), in the experiment with HLA-B*57:01 (setting [14]) and in the experiment with HLA-A*69:01 (setting [14]) was at least 20 µM in each case. Moreover, the Kd was at least 20 µM with HLA-B*51:01 (setting [14]); at least 20 µM in the experiment with HLA-A*02:01 (setting [14]); at least 20 µM in the experiment with HLA-B*18:01 (setting [14]); at least 20 µM with HLA-A*02:03 (setting [14]); 0.006 µM with HLA-A*11:01 (setting [14]); at least 20 µM with HLA-A*23:01 (setting [14]). Besides, the Kd with HLA-A*02:11 (setting [14]), in the experiment with HLA-A*02:12 (setting [14]), in the experiment with HLA-A*02:19 (setting [14]), with HLA-A*02:16 (setting [14]), in the experiment with HLA-A*68:02 (setting [14]) and in the experiment with HLA-A*24:03 (setting [14]) was at least 20 µM throughout.

Turning to VLDCRTAFK, the Kd with HLA-A*31:01 (source organism: Yellow fever virus) is 0.772 µM; with HLA-A*11:01 (source organism: Yellow fever virus 17D) it was 0.109 µM.

In the case of VSSHKGWAK, the Kd with HLA-A*26:01 (setting [15]), with HLA-B*27:03 (setting [15]), with HLA-B*46:01 (setting [15]), in the experiment with HLA-B*15:17, with HLA-B*39:01 (setting [15]) and in the experiment with HLA-B*57:01 (setting [15]) was at least 20 µM throughout. Also, the Kd is at least 20 µM with HLA-A*69:01 (setting [15]); at least 20 µM with HLA-B*51:01 (setting [15]); at least 20 µM with HLA-A*02:01 (setting [15]); at least 20 µM with HLA-A*02:03 (setting [15]); 0.002 µM with HLA-A*11:01 (setting [15]); at least 20 µM with HLA-A*03:01 [3] (setting [15]). Moreover, the Kd with HLA-A*23:01 (setting [15]), in the experiment with HLA-A*02:11 (setting [15]), with HLA-A*02:12 (setting [15]), with HLA-A*02:19 (setting [15]), with HLA-A*02:16 (setting [15]) and in the experiment with HLA-A*68:02 (setting [15]) was at least 20 µM each time. In the experiment with HLA-A*24:03 (setting [15]), the Kd was at least 20 µM.

(Values after the Immune Epitope Database (IEDB).)
